Source: patent US20210228731A1, “ANTIBODY DRUG CONJUGATES FOR ABLATING HEMATOPOIETIC STEM CELLS” (NOVARTIS AG, priority 2018, published 2021)

Tested on: human peripheral blood HSC-derived mast cells
Assay: In vitro human mast cell degranulation assay (beta-hexosaminidase release)
Assay type: cell-based
Settings: test agents 0.006-25 nM cross-linked with antibody specific for the Fab portion; absence of SCF
Description: Mature mast cells were generated using CD34+ progenitors from mobilized peripheral blood. CD34+ cells were cultured in StemSpan SFEM (StemCell Technologies) supplemented with recombinant human stem cell factor (rhSCF, 50 ng/ml, Gibco), recombinant human interleukin 6 (rhIL-6, 50 ng/ml, Gibco), recombinant human IL-3 (30 ng/ml, Peprotech), GlutaMAX ([…], Gibco), penicillin (100 U/ml, Hyclone) and streptomycin (100 μg/ml, Hyclone). Recombinant hll-3 was added only during the first week of the culture. After the third week, half of the medium was replaced weekly with fresh medium containing rhIL-6 (50 ng/ml) and rhSCF (50 ng/ml). Mature mast cell purity was evaluated by surface staining of high-affinity IgE receptor (FCεRI, eBioscience) and CD117 (BD). […]
The derived mast cells were washed once to remove SCF, and the required amount of cells was incubated overnight in mast cell medium containing rhIL-6 (50 ng/ml) with or without rhSCF (50 ng/ml). […] During this incubation, p-nitro-N-acetyl-pi-D-gluosamine (pNAG, Sigma) buffer was prepared by sonicating 3.5 mg/ml of pNAG in citrate buffer (40 mM citric acid, 20 mM sodium phosphate dibasic, pH 4.5). β-hexosaminidase release was measured by mixing 20 μl of cell supernatant with 40 μl of pNAG solution in a flat-bottom 384-well plate. […] Absorbance was read using a plate reader at λ=405 nm with reference filter at λ=620 nm. […]

B1: anti-cKIT Fab4 (HC-E152C): anti-cKIT Fab fragment with heavy chain E152C (Cys Fab HC SEQ ID NO: 136) (antibody)
heavy: QVQLQQSGPGLVKPSQTLSLTCAISGDSVSTNSAAWNWIRQSPSRGLEWLGRIYYRSQWLNDYAVSVKSRITINPDTSKNQFSLQLNSVTPEDTAVYYCARQLTYPYTVYHKALDVWGQGTLVTVSSASTKGPSVFPLAPSSKSTSGGTAALGCLVKDYFPCPVTVSWNSGALTSGVHTFPAVLQSSGLYSLSSVVTVPSSSLGTQTYICNVNHKPSNTKVDKRVEPKSCD
modifications: light chain not cited
- mast cell degranulation (beta-hexosaminidase release) when cross-linked: no mast cell degranulation was triggered
